In patent US20240409663A1 (CONCEPT TO MEDICINE BIOTECH, published 2024):

What was measured:
human GPC3 on cells [1] = biological target: T1, human GPC3 on cells (human, UniProt P51654 25-554); assay: FACS, GPC3-CHOK1 cells
T1 construct: whole, on cells; over-expressed on CHOK1 cells or endogenous on HEPG2, Hep3B and Huh-7 hepatocellular carcinoma cells; the cell line is named under assay; also called GPC3-CHOK1 cells; human GPC3 over-expressed CHOK1 cells
Description: To evaluate the antigen binding property, the affinity maturated antibodies were analyzed for their binding to human GPC3 over-expressed CHOK1 cells by FACS as previously described.

human GPC3 on cells [2] = biological target: T1, human GPC3 on cells; assay: FACS, GPC3-CHOK1 cells; remark: listed apart in the source
Excerpt: (§1) FACS was used to evaluate the binding activity of 52H5D3B8-6 #-VH1+VL1 and 52H5D3B8-6 #-VH2+VL3 with comparison to GC33 (Chugai Pharmaceutical) and Y035 (Carsgen Therapeutics, U.S. Patent Application US20190046659) on human GPC3 over-expressed CHOK1 cells and HEPG2 cells.

human GPC3 on cells [3] = biological target: T1, human GPC3 on cells; assay: cell-based or functional assay
[4] = biological target: T2, human GPC3-his tag protein (human, UniProt P51654 25-559, limits assumed); assay: SPR Biacore 8K, mAb captured, affinity ranking
T2 construct: recombinant soluble antigen used as analyte in all Biacore runs; also called recombinant GPC3 protein; rhGPC3-His; not shown: His tag

human GPC3 on cells [5] = biological target: T1, human GPC3 on cells; assay: FACS, Huh-7 cells
Description: (§2) To evaluate the antigen binding property, the humanized antibodies were analyzed for their binding to human GPC3 over-expressed CHOK1 cells, HEPG2 cells, Hep3B cells and Huh-7 cells by FACS. Briefly, GPC3-CHOK1 cells, HEPG2 cells, Hep3B cells and Huh-7 cells were firstly incubated with Fc blocking reagent at 4° C. for 15 mins. Cells were washed by FACS buffer and divided to each well with 4-fold serially diluted humanized antibodies starting at 10 μg/mL at 4° C. for 60 mins. Cells were washed by FACS buffer and fixed with 2% PFA at RT for 15 mins. […] The 16 humanized antibodies were separated into two plates.

human GPC3 on cells [6] = biological target: T1, human GPC3 on cells; assay: FACS, Hep3B cells
Description: as §2

human GPC3 on cells [7] = biological target: T1, human GPC3 on cells; assay: FACS, HEPG2 cells
Description: as §2

human GPC3 on cells [8] = biological target: T1, human GPC3 on cells; assay: FACS, HEPG2 cells; remark: listed apart in the source
Excerpt: as §1

human GPC3 on cells [9] = biological target: T1, human GPC3 on cells; assay: cell-based or functional assay; remark: listed apart in the source
human GPC3 on cells [10] = biological target: T1, human GPC3 on cells; assay: FACS, GPC3-CHOK1 cells; remark: listed apart in the source
Description: as §2

human GPC3 on cells [11] = biological target: T1, human GPC3 on cells; assay: FACS, GPC3-CHOK1 cells; remark: listed apart in the source
Description: as §2

human GPC3 on cells [12] = biological target: T1, human GPC3 on cells; assay: FACS, GPC3-CHOK1 cells; remark: listed apart in the source
Description: (§3) Cell-based binding: FACS was used to evaluate the binding activity of 52H5D3B8, 52H5D3B8-6 # chimeric mAbs and GC33 antibody on human GPC3 over-expressed CHOK1 cells, Hep3B cells and Huh-7 cells.
(§4) Briefly, GPC3-CHOK1 cells, Hep3B cells or Huh-7 cells were firstly incubated with Fc blocking reagent at 4° C. for 15 mins. Cells were washed by FACS buffer and divided to each well with 3-fold serially diluted 52H5D3B8, 52H5D3B8-6 # chimeric mAbs or GC33 antibody starting at 30 μg/mL at 4° C. for 60 mins. Cells were washed by FACS buffer and fixed with 2% PFA at RT for 15 mins. […] Samples were washed twice with FACS buffer.

human GPC3 on cells [13] = biological target: T1, human GPC3 on cells; assay: FACS, Huh-7 cells; remark: listed apart in the source
Description: as §2

[14] = biological target: T2, human GPC3-his tag protein; assay: SPR Biacore 8K, mAb captured, one or two doses GPC3-his
Description: The binding of the optimized antibodies of 52H5D3B8 mAb to human GPC3-his was tested with Biacore using a capture method. A single dose or two doses of human GPC3-his tag protein was injected over captured antibody. All the experiments were carried out on a Biacore 8K. Data analysis was carried out using Biacore 8K evaluation software.

human GPC3 on cells [15] = biological target: T1, human GPC3 on cells; assay: FACS, GPC3-CHOK1 cells; remark: listed apart in the source
Description: Briefly, GPC3-CHOK1 cells were firstly incubated with Fc blocking reagent at 4° C. for 15 mins. Cells were washed by FACS buffer and divided to each well with 3-fold serially diluted 52H5D3B8, 52H5D3B8-1 #, 52H5D3B8-2 #, 52H5D3B8-3 #, 52H5D3B8-4 #, 52H5D3B8-5 #, 52H5D3B8-6 #, 52H5D3B8-7 #, 52H5D3B8-8 #, 52H5D3B8-9 #, 52H5D3B8-10 #, 52H5D3B8-11 #, 52H5D3B8-12 #, 52H5D3B8-13 #, 52H5D3B8-14 # and 52H5D3B8-15# chimeric mAbs starting at 30 μg/mL at 4° C. for 60 mins. Cells were washed by FACS buffer and fixed with 2% PFA at RT for 15 mins. […] Samples were washed twice with FACS buffer.

human GPC3 on cells [16] = biological target: T1, human GPC3 on cells; assay: FACS, Hep3B cells; remark: listed apart in the source
Description: as §2

human GPC3 on cells [17] = biological target: T1, human GPC3 on cells; assay: FACS, Huh-7 cells; remark: listed apart in the source
Description: as §3, §4

human GPC3 on cells [18] = biological target: T1, human GPC3 on cells; assay: FACS, HEPG2 cells; remark: listed apart in the source
Description: as §2

[19] = biological target: T2, human GPC3-his tag protein; assay: SPR Biacore, mAb captured on CM5, GPC3-his dilution series (full kinetics)
Description: The binding of the humanized antibodies to recombinant GPC3 protein (human GPC3-his tag) was tested by Biacore using a capture method. 52H5D3B8-6 #-V+VL, 52H5D3B8-6 #-VH1+VL1, 52H5D3B8-6 #-VH1+VL3, 52H5D3B8-6 #-V1+VL4, 52H5D3B8-6 #-VH2+VL4, 52H5D3B8-6 #-VH3+VL1, 52H5D3B8-6 #-VH3+VL3 mAbs were captured using CM5 sensor chip. A serial dilution of human GPC3-his tag protein was injected over captured antibody for 2 mins at a flow rate of […]. The antigen was allowed to dissociate for 360 s. All the experiments were carried out on a Biacore T200.

human GPC3 on cells [20] = biological target: T1, human GPC3 on cells; assay: FACS, Hep3B cells; remark: listed apart in the source
Description: as §3, §4

B1: 52H5D3B8-6#-VH2+VL3 (antibody, V domains shown)
VH: QVQLVQSGAEVKKPGASVKVSCKASGYTFTDYEMHWVRQAPGQGLEWIGAIHPGSGGTAYNQKFKGRVTMTADTSTSTVYMELSSLRSEDTAVYYCTRYYSYAYWGQGTLVTVSS
VL: DIVMTQTPLSLSVTPGQPASISCRSSQSLVHSNGNTYLQWYLQKPGQSPKLLIYKVSNRFSGVPDRFSGSGSGTDFTLKISRVEAEDVGVYYCFQSIHVPYTFGGGTKLEIK
notes: humanized
For B1, the EC50 (human GPC3 on cells [1]) was 0.412 nM, the EC50 (human GPC3 on cells [2]) was 0.344 nM and the “EC50 of ADCC cytotoxicity (primary NK cells, LDH), HEPG2 cells” value (human GPC3 on cells [3]) was 0.104 nM. For the same binder, the “EC50 of ADCC cytotoxicity (primary NK cells, LDH), Huh-7 cells” value (human GPC3 on cells [3]) was 0.106 nM, the Kd [4] was 0.962 nM and the koff [4] was 0.000642 s⁻¹. It also gave a kon [4] of 668000 M⁻¹ s⁻¹, an EC50 (human GPC3 on cells [5]) of 0.0384 µg/mL and an EC50 (human GPC3 on cells [6]) of 0.0705 µg/mL. For the same binder, the EC50 (human GPC3 on cells [7]) was 0.0438 µg/mL, the EC50 (human GPC3 on cells [8]) was 0.354 nM and the “EC50 of ADCC signaling (Jurkat-hCD16a-NFAT luciferase reporter), HEPG2 cells” value (human GPC3 on cells [9]) was 0.174 nM. The “EC50 of ADCC signaling (Jurkat-hCD16a-NFAT luciferase reporter), Huh-7 cells” value (human GPC3 on cells [9]) was 0.265 nM and the EC50 (human GPC3 on cells [10]) was 0.0411 µg/mL.

B2: 52H5D3B8-6# chimeric mAb (antibody, V domains shown)
VH: QVQLQQSGAELVRPGASVKLSCKALGYTFTDYEMHWVKQTPVHGLEWIGAIHPGSGGTAYNQKFKGKATLTADKFSSTGYMELSSLTSEDSAVYYCTRYYSYAYWGQGTLVTVSA
VL: DVVMTQTPLSLPVSLGDQASISCRSSQSLVHSNGNTYLQWYLQKPGQSPKLLIYKVSNRFSGVPDRFSGSGSGTDFILKISRVEAEDLGVYFCFQSIHVPYTFGGGTKLEIK
notes: CDR3 mutant of the 52H5D3B8 chimeric mAb (human IgG1); also called 52H5D3B8-6#-VH+VL
B2 gave an EC50 (human GPC3 on cells [11]) of 0.0389 µg/mL, an EC50 (human GPC3 on cells [12]) of 0.0474 µg/mL and a Kd [4] of 0.425 nM. For the same binder, the koff [4] was 0.000307 s⁻¹, the kon [4] was 721000 M⁻¹ s⁻¹ and the EC50 (human GPC3 on cells [13]) was 0.0378 µg/mL. It also gave an EC50 (human GPC3 on cells [5]) of 0.0347 µg/mL, a Kd [14] of 0.368 nM and a koff [14] of 0.000289 s⁻¹. For the same binder, the kon [14] was 785000 M⁻¹ s⁻¹, the EC50 (human GPC3 on cells [15]) was 0.0601 µg/mL and the EC50 (human GPC3 on cells [16]) was 0.0664 µg/mL. The EC50 (human GPC3 on cells [17]) was 0.0501 µg/mL, the EC50 (human GPC3 on cells [6]) was 0.0643 µg/mL and the EC50 (human GPC3 on cells [18]) was 0.0469 µg/mL. For the same binder, the EC50 (human GPC3 on cells [7]) was 0.0452 µg/mL, the Kd [19] was 0.446 nM and the koff [19] was 0.000265 s⁻¹. The kon [19] was 595000 M⁻¹ s⁻¹, the EC50 (human GPC3 on cells [20]) was 0.0982 µg/mL and the EC50 (human GPC3 on cells [10]) was 0.035 µg/mL.
